Data from patent US20260242448A1.

How the values were obtained:
[1] = target: S protein of the SARS-CoV-2 BA.1 strain on pseudo-virus (SARS-CoV-2 BA.1 strain); test: cell-based or functional assay
[2] = target: S protein of the SARS-CoV-2 BA.4/5 strains on pseudo-virus (SARS-CoV-2 BA.4/5 strain); test: cell-based or functional assay
[3] = target: S protein of the SARS-CoV-2 BA.2.75 strain on pseudo-virus (SARS-CoV-2 BA.2.75 strain); test: cell-based or functional assay
[4] = target: S protein of the SARS-CoV-2 BQ.1 strain on pseudo-virus (SARS-CoV-2 BQ.1 strain); test: cell-based or functional assay
[5] = target: S protein of the SARS-CoV-2 XBB.1.5 strain on pseudo-virus (SARS-CoV-2 XBB.1.5 strain); test: cell-based or functional assay
[6] = target: S protein of the SARS-CoV-2 Delta strain on pseudo-virus (SARS-CoV-2 Delta strain); test: cell-based or functional assay
[7] = target: S protein of the SARS-CoV-2 XBB strain on pseudo-virus (SARS-CoV-2 XBB strain); test: cell-based or functional assay
[8] = target: S protein of the SARS-CoV-2 BQ.1.1 strain on pseudo-virus (SARS-CoV-2 BQ.1.1 strain); test: cell-based or functional assay
[9] = target: S protein of the SARS-CoV-2 BF.7 strain on pseudo-virus (SARS-CoV-2 BF.7 strain); test: cell-based or functional assay
[10] = target: SARS-CoV-2 (BA.5) Spike RBD (SARS-CoV-2 BA.5 strain); test: SPR, Biacore 8K; antibody captured on Protein A chip, RBD as analyte
[11] = target: SARS-CoV-2 (BF.7) Spike RBD (SARS-CoV-2 BF.7 strain); test: as above
[12] = target: SARS-CoV-2 (BF.7) Spike RBD (SARS-CoV-2 BF.7 strain); test: ELISA on plate-coated RBD (1 µg/mL), HRP anti-human Fc detection, OD450

Sequence of LY-CoV1404 (antibody) (VH): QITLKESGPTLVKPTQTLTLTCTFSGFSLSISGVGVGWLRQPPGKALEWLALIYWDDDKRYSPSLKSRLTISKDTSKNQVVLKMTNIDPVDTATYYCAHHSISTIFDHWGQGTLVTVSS
Sequence of LY-CoV1404 (antibody) (VL): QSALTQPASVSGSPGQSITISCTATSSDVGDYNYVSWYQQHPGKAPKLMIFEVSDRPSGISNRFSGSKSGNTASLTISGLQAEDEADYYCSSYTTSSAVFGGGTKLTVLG

Substance: LY-CoV1404 (antibody)
- Neutralization activity (IC50) against pseudo-virus [1]: 1.44 ng/mL
- Neutralization activity (IC50) against pseudo-virus [2]: 1.22 ng/mL
- Neutralization activity (IC50) against pseudo-virus [3]: 25.1 ng/mL
- Neutralization activity (IC50) against pseudo-virus [4]: > 2000 ng/mL
- Neutralization activity (IC50) against pseudo-virus [5]: > 2000 ng/mL
- Neutralization activity (IC50) against pseudo-virus [6]: 3.05 ng/mL
- Neutralization activity (IC50) against pseudo-virus [7]: > 2000 ng/mL
- Neutralization activity (IC50) against pseudo-virus [8]: > 2000 ng/mL
- Neutralization activity (IC50) against pseudo-virus [9]: 2.14 ng/mL
- Kd [10]: 184 pM
- koff [10]: 0.000264 s⁻¹
- kon [10]: 1.44e+06 M⁻¹ s⁻¹
- Kd [11]: 162 pM
- koff [11]: 0.000148 s⁻¹
- kon [11]: 910000 M⁻¹ s⁻¹
- EC50 [12]: 110 pM
